{"source": "patent US20050196797A1", "about": "(JAPAN SCIENCE AND TECHNOLOGY AGENCY, published 2005)", "biological_target": "human SMG-1 (hSMG-1) (human, UniProt Q96Q15 1-3661, limits assumed)", "sequence (Q96Q15 whole entry)": "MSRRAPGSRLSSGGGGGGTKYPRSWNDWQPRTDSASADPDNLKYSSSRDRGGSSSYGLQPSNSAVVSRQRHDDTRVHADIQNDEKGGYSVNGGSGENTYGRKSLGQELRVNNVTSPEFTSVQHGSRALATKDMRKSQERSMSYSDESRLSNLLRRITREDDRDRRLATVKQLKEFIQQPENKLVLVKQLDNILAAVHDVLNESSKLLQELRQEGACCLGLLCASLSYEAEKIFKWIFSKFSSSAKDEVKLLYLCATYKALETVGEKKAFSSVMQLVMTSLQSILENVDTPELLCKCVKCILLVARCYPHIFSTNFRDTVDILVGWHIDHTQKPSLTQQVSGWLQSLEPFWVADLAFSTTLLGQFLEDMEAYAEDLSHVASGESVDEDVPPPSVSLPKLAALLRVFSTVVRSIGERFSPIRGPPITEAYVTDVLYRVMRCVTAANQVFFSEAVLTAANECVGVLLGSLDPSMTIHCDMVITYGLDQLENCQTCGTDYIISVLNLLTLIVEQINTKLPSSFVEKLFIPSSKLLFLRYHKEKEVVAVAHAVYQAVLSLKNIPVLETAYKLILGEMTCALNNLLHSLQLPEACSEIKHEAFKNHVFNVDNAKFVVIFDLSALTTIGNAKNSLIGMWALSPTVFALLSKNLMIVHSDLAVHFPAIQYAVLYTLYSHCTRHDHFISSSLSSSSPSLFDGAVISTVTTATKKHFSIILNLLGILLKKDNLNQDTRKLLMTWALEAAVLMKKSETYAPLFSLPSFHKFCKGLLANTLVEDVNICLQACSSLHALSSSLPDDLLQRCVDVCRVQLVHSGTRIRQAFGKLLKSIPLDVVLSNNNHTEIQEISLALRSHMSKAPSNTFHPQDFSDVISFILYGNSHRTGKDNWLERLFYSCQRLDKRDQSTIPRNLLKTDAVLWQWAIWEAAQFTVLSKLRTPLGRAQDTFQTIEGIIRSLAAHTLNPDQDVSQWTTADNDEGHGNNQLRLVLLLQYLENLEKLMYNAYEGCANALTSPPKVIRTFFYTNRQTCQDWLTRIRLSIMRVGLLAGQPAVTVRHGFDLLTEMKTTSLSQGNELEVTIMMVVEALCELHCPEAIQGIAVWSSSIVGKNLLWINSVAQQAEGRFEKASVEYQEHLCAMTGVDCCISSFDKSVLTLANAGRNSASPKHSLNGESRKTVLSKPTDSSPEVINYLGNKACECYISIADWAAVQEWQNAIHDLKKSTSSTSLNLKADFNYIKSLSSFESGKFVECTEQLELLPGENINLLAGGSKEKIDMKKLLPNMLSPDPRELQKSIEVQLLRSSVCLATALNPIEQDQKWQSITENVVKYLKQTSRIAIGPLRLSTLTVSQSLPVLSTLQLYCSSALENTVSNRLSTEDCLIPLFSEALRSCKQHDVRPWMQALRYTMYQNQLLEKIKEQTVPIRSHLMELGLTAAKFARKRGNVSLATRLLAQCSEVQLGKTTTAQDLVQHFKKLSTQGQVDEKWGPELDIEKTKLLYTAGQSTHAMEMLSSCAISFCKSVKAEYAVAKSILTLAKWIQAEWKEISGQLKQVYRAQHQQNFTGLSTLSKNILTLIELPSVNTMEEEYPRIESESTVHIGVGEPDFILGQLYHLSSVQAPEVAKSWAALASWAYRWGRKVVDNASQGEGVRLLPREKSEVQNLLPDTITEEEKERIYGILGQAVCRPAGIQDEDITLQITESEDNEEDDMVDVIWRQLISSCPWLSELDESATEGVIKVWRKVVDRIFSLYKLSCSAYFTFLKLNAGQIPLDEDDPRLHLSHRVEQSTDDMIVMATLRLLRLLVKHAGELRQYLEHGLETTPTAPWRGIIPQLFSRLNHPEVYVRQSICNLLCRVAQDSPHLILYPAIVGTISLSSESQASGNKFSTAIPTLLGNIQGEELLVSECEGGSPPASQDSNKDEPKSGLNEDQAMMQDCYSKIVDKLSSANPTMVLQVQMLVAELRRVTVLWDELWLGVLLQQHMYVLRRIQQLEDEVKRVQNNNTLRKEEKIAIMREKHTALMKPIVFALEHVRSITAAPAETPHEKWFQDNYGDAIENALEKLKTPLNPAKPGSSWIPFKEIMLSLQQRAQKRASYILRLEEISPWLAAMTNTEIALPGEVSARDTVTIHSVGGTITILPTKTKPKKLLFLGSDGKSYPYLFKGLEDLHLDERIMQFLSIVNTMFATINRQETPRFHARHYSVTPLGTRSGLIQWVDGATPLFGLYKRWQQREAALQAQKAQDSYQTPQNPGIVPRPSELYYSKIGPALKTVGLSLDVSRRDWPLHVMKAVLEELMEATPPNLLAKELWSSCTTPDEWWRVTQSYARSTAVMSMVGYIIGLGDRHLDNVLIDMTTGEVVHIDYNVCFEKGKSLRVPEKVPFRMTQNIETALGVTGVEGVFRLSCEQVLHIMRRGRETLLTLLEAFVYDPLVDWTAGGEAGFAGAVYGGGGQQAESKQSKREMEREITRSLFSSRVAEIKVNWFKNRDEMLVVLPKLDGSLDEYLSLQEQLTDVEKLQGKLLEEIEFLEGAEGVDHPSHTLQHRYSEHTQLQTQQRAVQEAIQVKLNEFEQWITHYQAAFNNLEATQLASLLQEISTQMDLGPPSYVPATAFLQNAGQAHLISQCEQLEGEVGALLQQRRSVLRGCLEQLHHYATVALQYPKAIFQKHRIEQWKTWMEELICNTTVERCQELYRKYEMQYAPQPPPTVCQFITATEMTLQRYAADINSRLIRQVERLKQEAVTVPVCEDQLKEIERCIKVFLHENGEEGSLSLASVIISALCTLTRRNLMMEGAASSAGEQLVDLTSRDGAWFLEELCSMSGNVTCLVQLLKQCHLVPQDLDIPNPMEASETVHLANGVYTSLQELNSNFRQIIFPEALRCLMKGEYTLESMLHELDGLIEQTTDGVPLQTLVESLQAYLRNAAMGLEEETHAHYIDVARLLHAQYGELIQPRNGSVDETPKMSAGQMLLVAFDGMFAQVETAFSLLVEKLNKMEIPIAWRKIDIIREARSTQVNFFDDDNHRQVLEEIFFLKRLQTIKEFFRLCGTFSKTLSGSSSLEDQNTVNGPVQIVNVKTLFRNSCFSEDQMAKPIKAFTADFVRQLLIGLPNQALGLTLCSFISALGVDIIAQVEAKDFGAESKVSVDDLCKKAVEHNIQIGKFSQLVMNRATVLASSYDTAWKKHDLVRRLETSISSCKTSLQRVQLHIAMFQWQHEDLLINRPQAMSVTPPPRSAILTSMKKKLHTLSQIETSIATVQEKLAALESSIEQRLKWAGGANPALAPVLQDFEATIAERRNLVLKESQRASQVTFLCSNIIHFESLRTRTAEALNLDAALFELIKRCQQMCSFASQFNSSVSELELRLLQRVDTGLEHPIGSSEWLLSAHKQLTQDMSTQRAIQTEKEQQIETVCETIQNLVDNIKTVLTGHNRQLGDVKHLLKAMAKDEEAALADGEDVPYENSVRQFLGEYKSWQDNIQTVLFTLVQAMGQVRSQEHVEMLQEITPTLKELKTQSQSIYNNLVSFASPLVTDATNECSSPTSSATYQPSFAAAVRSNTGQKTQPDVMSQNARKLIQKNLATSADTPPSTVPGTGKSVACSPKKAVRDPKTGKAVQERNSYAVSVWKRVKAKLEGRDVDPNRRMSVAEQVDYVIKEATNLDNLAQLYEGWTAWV", "test": "cell-based or functional assay", "data": [{"binder": "SMGBP1 (SMG Binding Protein 1) (other) MAGPVSLRDLLMGASAWMGSESPGGSPTEGGGSAAGGPEPPWREDEICVVGIFGKTALRLNSEKFSLVNTVCDRQVFPLFRHQDPGDPGPGIRTEAGAVGEAGGAEDPGAAAGGSVRGSGAVAEGNRTEAGSQDYSLLQAYYSQESKVLYLLLTSICDNSQLLRACRALQSGEAGGGLSLPHAEAHEFWKHQEKLQCLSLLYLFSVCHILLLVHPTCSFDITYDRVFRALDGLRQKVLPLLKTAIKDCPVGKDWKLNCRPCPPRLLFLFQLNGALKVVPPRNQDPAHPDKPKKHSPKRRLQHALEDQIYRIFRKSRVLTNQSINCLFTVPANQAFVYIVPGSQEEDPVGMLLDQLRSHCTVKDPESLLVPAPLSGPRRYQVMRQHSRQQLSFHIDSSSSSSSGQLVDFTLWEFLWQHVELVLSKKGFDDSVGRNPQPSHFELPTYQKWISAASKLYEVAIDGKEEDLGSPTGELTSKILSSIKVLEGFLDIDTKFSENRCQKALPMAHSAYQSNLPHNYTMTVHKNQLAQALRVYSQHARGPAFHKYAMQLHEDCYKFWSNGHQLCEERSLTDQHCVHKFHSLPKSGEKPEADRNPPVLYHNSRARSTGACNCGRKQAPRDDPFDIKAANYDFYQLLEEKCCGKLDHINFPVFEPSTPDPAPAKNESSPAPPDSDADKLKEKEPQTQGESTSLSLALSLGQSTDSLGTYPADPQAGGDNPEVHGQVEVKTEKRPNFVDRQASTVEYLPGMLHSNCPKGLLPKFSSWSLVKLGPAKSYNFHTGLDQQGFIPGTNYLMPWDIVIRTRAEDEGDLDTNSWPAPNKAIPGKRSAVVMGRGRRRDDIARAFVGFEYEDSRGRRFMCSGPDKVMKVMGSGPKESALKALNSDMPLYILSSSQGRGLKPHYAQLMRLFVVVPDAPLQIILMPQVQPGPPPCPVFYPEKQEITLPPDGLWVLRFPYAYVTERGPCFPPKENVQLMSYKVLRGVLKAVTQ", "values": [{"measurement": "phosphorylation of hUPF1 (P-hUPF1/hUPF1) in HeLa TetOff cells transfected with siRNA against p130, relative to control siRNA", "result": "~40", "unit": "%"}]}]}
